The test deals with human IgM-Fc (heavy chain constant domains Cμ2, Cμ3, Cμ4 and the tailpiece) (human). Kind of test: cryo-EM structure.

The substance “human IgM-Fc (heavy chain constant domains Cμ2, Cμ3, Cμ4 and the tailpiece) (domain or fragment)” returned a stoichiometry N of 5.

Usually stoichiometry N stands for the number of molecules, sites or subunits per partner or assembly.

The values above are taken from article doi:10.1101/2020.09.10.291138.
